Assay results published in patent US20250276080A1 (Amgen, published 2025).
Where no end group is shown, it is not given here. [ ]: non-standard residue; d: D form. Aib = CC(C)(N)C(=O)O

What was measured:
Assay in all cases: cell-based or functional assay
human glucagon receptor [1] = molecular target: human glucagon receptor (human, UniProt P47871 26-477)
Target sequence in this assay (P47871 26-477): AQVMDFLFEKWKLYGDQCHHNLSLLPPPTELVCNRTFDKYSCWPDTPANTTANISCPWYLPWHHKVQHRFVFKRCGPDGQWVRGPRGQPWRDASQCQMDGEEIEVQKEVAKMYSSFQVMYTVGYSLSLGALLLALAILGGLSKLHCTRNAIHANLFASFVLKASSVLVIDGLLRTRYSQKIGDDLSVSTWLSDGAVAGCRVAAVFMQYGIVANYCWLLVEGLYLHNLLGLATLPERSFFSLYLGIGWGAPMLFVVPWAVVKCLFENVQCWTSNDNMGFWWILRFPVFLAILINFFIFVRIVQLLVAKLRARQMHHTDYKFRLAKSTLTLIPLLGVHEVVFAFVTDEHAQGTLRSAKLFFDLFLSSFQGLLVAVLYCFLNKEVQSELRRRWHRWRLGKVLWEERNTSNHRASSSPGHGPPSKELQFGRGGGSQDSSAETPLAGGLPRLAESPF

[2] = molecular target: human glucagon-like peptide-1 receptor (human, UniProt P43220 24-463)
human glucagon receptor [3] = molecular target: human glucagon receptor (human, UniProt P47871 26-477); remark: listed apart in the source
Target sequence in this assay (P47871 26-477): as above

human GLP-1 receptor = human GLP-1 receptor (human, UniProt P43220 24-463)

B1: Conjugate 40741: aGIPR 5G12 SEFL2 E384C-39903 (other)
heavy: QVQLVESGGGVVQPGRSLRLSCTASGFTFSSYGIHWVRQAPGKGLEWVAVIWYDGSNKFHADSVKGRFTISRDNSKNTLYLQMNSLRAEDSAMYFCARGKVAGMPEAFEIWGQGTKVTVSSASTKGPSVFPLAPSSKSTSGGTAALGCLVKDYFPEPVTVSWNSGALTSGVHTFPAVLQSSGLYSLSSVVTVPSSSLGTQTYICNVNHKPSNTKVDKKVEPKSCDKTHTCPPCPAPELLGGPSVFLFPPKPKDTLMISRTPEVTCVVVDVSHEDPCVKFNWYVDGVEVHNAKTKPCEEQYGSTYRCVSVLTVLHQDWLNGKEYKCKVSNKALPAPIEKTISKAKGQPREPQVYTLPPSREEMTKNQVSLTCLVKGFYPSDIAVEWESNGQPENNYKTTPPVLDSDGSFFLYSKLTVDKSRWQQGNVFSCSVMHEALHNHYTQKSLSLSPGK
light: DIQLTQSPSSLSASVGDRVTITCRASQTISRFLNWYQQKPGKAPELLIYVASSLQSGVPSRFSGSGSGTDFTLTISSLQPEDFATYYCQQSYSTLISFGQGTKLEITRTVAAPSVFIFPPSDEQLKSGTASVVCLLNNFYPREAKVQWKVDNALQSGNSQESVTEQDSKDSTYSLSSTLTLSKADYEKHKVYACEVTHQGLSSPVTKSFNRGEC
peptide: HSQGTFTSDYSKYLDQRRAQDFVQWLLKT
chain: GSPAPAPAPAPAPAPAPAPAPASGG
modifications: N-term acetyl-thioether to Cys; d-Ser2; K28 eps-NH linked to linker C-term; C276 conjugated to linker
B1 was tested, and the “hGCGR EC50 (pM)” value (human glucagon receptor [1]) was 40.9 pM and the “hGLP-1R EC50 (pM)” value [2] was 8020 pM.

B2: Conjugate 92868: aGIPR 5G12 SEFL2 E384C-92840 (other)
heavy: B1 heavy
light: B1 light
peptide: HSQGTFTSDYSKYLDEKRAREFVEWLLKS
chain: GGGGSGGGGSPAPAPAPAPAPASGG
modifications: N-terminus conjugated to heavy-chain Cys; d-Ser2; K28 side chain amide-linked to linker C-terminus; C276 conjugated to linker
With B2 the “hGCGR EC50 (pM)” value (human glucagon receptor [3]) was 127 pM and the “hGLP-1R EC50 (pM)” value (human GLP-1 receptor) was 289 pM.

B3: Conjugate 91659: aGIPR 5G12 SEFL2 E384C-91255 (other)
heavy: B1 heavy
light: B1 light
peptide: HSQGTFTSDYSKYLDEKRAQEFVEWLLKS
chain: GGGGSGGGGSPAPAPAPAPAPASGG
modifications: N-terminus conjugated to heavy-chain Cys; d-Ser2; K28 side chain amide-linked to linker C-terminus; C276 conjugated to linker
B3 was tested, and the “hGCGR EC50 (pM)” value (human glucagon receptor [3]) was 152 pM and the “hGLP-1R EC50 (pM)” value (human GLP-1 receptor) was 6750 pM.

B4: Conjugate 88013: aGIPR 5G12 SEFL2 E384C-87021 (other)
heavy: B1 heavy
light: B1 light
peptide: HSQGTFTSDYSKYLDAKRAQEFVEWLLKS
chain: GGGGSGGGGSPAPAPAPAPAPASGG
modifications: N-terminus conjugated to heavy-chain Cys; K28 side chain amide-linked to linker C-terminus; C276 conjugated to linker
With B4 the “hGCGR EC50 (pM)” value (human glucagon receptor [3]) was 41.3 pM.

B5: Conjugate 25435: Fc SEFL2 T487C-15997 (other)
chain 1: DKTHTCPPCPAPELLGGPSVFLFPPKPKDTLMISRTPEVTCVVVDVSHEDPEVKFNWYVDGVEVHNAKTKPCEEQYGSTYRCVSVLTVLHQDWLNGKEYKCKVSNKALPAPIEKTISKAKGQPREPQVYTLPPSREEMCKNQVSLTCLVKGFYPSDIAVEWESNGQPENNYKTTPPVLDSDGSFFLYSKLTVDKSRWQQGNVFSCSVMHEALHNHYTQKSLSLSPGK
peptide: H[dS]QGTFTSDYSKYLD[Aib]RRAQDFVQWLLKT
chain 2: Ac-GSPAPAPAPAPAPAPAPAPAPASGG
modifications: not fully specified; also: thioether at chain A 139 to a chain's N-terminus via acetyl, bond at chain B 28 to a chain's C-terminus
With B5 the “hGCGR EC50 (pM)” value (human glucagon receptor [1]) was 9.1 pM and the “hGLP-1R EC50 (pM)” value [2] was 9770 pM.
